Here are results for one substance from article PMC11330416.

“And” between values parts separate entries of the source, which are not always exact repeats. Equal values may be shown once.

Assay [1] concerns the target biotinylated human angiotensin-converting enzyme 2 reference material ACE2-1 (human) (UniProt Q9BYF1). In words: SPR; ACE2-1 immobilised by its biotin on streptavidin on a biotin-coated Au chip (250-300 RU), blocked with 10 uM BSA; spike analyte in a twofold series of 12.5-200 nM at 50 uL/min, about 90 s association, 30-45 min dissociation; 10 mM HEPES pH 7-7.4, 150 mM NaCl, 3 mM EDTA, 0.05% Tween-20; 1:1 binding model; averages of two independent experiments.

In assay [2] the target is SARS-CoV-2 Omicron BA.4/5 spike protein reference material OMIC-1 (SARS-CoV-2 (Omicron BA.4/BA.5) | human) (UniProt P0DTC2). Kind of assay: SEC-MALS; Waters BEH SEC 4.6 x 150 mm column (200 A for ACE2-1, 450 A for OMIC-1), DPBS with 0.02% Tween-20, pH 7.4, 0.4 mL/min; UV at 280 nm, MALS and RI detection; relative amounts of species from SEC-UV. (In gel filtration, larger molecules generally elute earlier.)

Chain of biotinylated human angiotensin-converting enzyme 2 reference material ACE2-1 (human) (Q9BYF1 20-614): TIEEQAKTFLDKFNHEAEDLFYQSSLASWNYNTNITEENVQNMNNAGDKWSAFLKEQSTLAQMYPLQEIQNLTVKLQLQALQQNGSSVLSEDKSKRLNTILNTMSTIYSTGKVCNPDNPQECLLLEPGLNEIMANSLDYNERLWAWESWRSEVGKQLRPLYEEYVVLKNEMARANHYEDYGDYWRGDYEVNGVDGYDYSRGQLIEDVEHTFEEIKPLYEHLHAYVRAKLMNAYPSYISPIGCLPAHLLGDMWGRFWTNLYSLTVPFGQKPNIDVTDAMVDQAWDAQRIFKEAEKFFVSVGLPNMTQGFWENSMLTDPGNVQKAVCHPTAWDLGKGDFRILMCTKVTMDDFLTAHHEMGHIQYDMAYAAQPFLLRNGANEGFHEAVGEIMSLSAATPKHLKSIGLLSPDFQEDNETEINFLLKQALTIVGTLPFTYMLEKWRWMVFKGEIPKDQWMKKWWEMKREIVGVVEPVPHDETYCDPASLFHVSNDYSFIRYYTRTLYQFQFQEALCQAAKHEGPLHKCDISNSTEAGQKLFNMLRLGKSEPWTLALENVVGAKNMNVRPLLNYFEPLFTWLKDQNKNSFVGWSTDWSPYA

For “SARS-CoV-2 Omicron BA.4/5 spike protein reference material OMIC-1 (from UniProt P0DTC2 14-1213)”, the Kd (in general, the equilibrium constant for the complex coming apart) in assay [1] worked out at 4.4 nM. In assay [2], the percent in higher molecular weight oligomers (SEC-UV) is 14%; the percent in the trimeric form (SEC-UV) came to 82%; the stoichiometry N (commonly the number of molecules, sites or subunits per partner or assembly) is 3 and 6.
